{"source": "patent US5189019A", "about": "“Antistasin derived anticoagulant protein” (Merck & Co., Inc., priority 1990, dated 1993)", "origin": "cited, not measured here", "molecular_target": "Factor Xa (Homo sapiens, UniProt P00742)", "sequence (P00742 235-488 limits assumed)": "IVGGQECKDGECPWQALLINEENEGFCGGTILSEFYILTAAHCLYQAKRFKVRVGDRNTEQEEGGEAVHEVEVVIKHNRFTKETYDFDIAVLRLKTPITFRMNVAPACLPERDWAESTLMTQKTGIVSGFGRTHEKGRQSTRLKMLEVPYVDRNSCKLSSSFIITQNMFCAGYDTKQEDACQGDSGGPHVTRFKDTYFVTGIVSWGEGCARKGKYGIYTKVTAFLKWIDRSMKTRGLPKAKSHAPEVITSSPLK", "sequence (P00742 41-179 partner limits assumed)": "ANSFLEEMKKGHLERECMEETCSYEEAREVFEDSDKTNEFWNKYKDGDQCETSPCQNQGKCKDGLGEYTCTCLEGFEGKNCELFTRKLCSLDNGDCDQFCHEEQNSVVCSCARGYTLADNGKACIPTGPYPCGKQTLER", "details": "Tuszynski et al. 1987; Nutt et al. 1988", "data": [{"molecule": "Antistasin: 15 kDa cysteine rich protein found in the salivary gland of the Mexican leech, Haementeria officinalis (protein, UniProt P15358 18-136, looked up) Antistasin: QGPFGPGCEEAGCPEGSACNIITDRCTCSGVRCRMHCPHGFQRSRYGCEFCKCRLEPMKATCDISECPEGMMCSRLTNKCDCKIDINCRKTCPNGLKRDKLGCEYCECRPKRKLIPRLS", "values": [{"measurement": "inhibition of Factor Xa in the human blood coagulation cascade", "result": "potent inhibitor"}]}]}
